The target of test [1] is T1, recombinant Human IL-17BR-His extracellular domain (human, UniProt Q9NRM6 18-292).
T1 construct: extracellular domain; also called human IL17BR-his tag protein
T1 sequence (looked up): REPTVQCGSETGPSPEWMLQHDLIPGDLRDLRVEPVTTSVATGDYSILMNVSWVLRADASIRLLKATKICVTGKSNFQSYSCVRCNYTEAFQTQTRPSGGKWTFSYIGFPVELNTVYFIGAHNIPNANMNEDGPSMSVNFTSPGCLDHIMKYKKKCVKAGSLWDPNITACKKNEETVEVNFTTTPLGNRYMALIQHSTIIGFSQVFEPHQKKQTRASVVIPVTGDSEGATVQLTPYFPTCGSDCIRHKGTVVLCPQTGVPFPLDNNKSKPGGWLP
In words: Biacore T200, antibody captured by anti-human Fc, Human IL17BR-His 20-1.25 nM, 1:1 model. On the procedure: A Human Antibody Capture kit was used to coat an anti-human IgG (Fc) antibody (in 10 mM sodium acetate, pH 5.0 immobilisation buffer) onto flow paths 2-4 a CM5 chip. Flow-path 1 was blocked and used as a blank control. This anti-human IgG coated chip was then used to immobilize the humanized antibody variants. A concentration series from 20-1.25 nM of Human IL17BR-His using a 2-fold dilution series was made using HBS-EP⁺ buffer. Purified antibody samples were diluted to 1 μg/ml in HBS-EP⁺ buffer and each injected onto one coated flow-path on the chip at a flow-rate of 10 μl/min for 2 mins in a Biacore T200 (GE Healthcare). Association time was set to 8 mins and Dissociation to 90 mins at a flow-rate of 30 μl/min Kinetics of binding/dissociation were analysed using a 1:1 model in the BIAevaluation software
8. Kinetics of the Binding of Humanized hD9040, hD9041 and hD9042 Antibodies to IL-17BR To further characterize the binding of the lead humanized candidates hD9040, hD9041 and hD9042 antibodies to Human IL-17BR-His, kinetics experiments were performed using the Biacore T200 instrument.
On the technique in general: In SPR one partner is held on a chip, and binding of the other changes the refractive index at the surface.

For test [2], the target named is T1, recombinant Human IL-17BR-His …. In words: binding ELISA on recombinant Human IL-17BR-His extracellular domain, absorbance 450 nm against antibody conc. (nM). Background: An ELISA detects its analyte on a solid surface through an enzyme-linked reagent.
For a further test, the target named is T2, Mouse IL-17BR-(Fc) (mouse, UniProt Q9JIP3 18-286).
T2 construct: extracellular domain; Bought (Sino Biological); not shown: Fc part of the bought fusion (Sino Biological), not described
T2 sequence (looked up): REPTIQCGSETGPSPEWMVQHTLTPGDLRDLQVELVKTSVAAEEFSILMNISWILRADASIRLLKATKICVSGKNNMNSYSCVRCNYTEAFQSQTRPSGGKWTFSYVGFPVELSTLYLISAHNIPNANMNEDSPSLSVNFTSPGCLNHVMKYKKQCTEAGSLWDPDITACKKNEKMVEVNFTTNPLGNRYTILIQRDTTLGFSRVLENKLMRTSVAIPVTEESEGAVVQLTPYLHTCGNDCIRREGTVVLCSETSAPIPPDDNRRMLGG
In words: binding ELISA on recombinant Mouse IL-17BR-(Fc) extracellular domain, absorbance 450 nm against antibody conc. (nM).

The target of test [3] is Cynomolgus monkey IL-17BR-monoFc (cynomolgus monkey, UniProt A0A2K5TUK1 18-292). Nature of the test: binding ELISA on recombinant Cynomolgus monkey IL-17BR-monoFc extracellular domain, absorbance 450 nm against antibody conc. (nM).
Test [4] addresses T1, recombinant Human IL-17BR-His …. Nature of the test: binding ELISA on Human IL-17BR-His, absorbance 650 nm against antibody conc. (nM).
The target in the next test is T3, human IL17RD-his tag (human, UniProt Q8NFM7 17-299, limits assumed).
T3 construct: Bought
T3 sequence (looked up): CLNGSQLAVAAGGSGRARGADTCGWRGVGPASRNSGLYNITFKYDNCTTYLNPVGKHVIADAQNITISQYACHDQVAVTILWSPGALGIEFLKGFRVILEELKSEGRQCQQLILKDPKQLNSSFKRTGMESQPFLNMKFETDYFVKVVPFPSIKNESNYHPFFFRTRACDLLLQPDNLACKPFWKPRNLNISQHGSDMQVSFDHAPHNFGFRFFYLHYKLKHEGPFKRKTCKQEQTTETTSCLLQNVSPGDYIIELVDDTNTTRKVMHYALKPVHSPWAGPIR
In words: ELISA, plate coated with 2 ug/ml human IL17RD-his tag, absorbance 450 nm. On the procedure: (§1) ELISA plates were coated overnight at 4° C. with 2 μg/ml human IL17RA-Fc fusion protein(Sino Biological, 10895-H03H), human IL17BR-his tag protein (Sino Biological, 13091-H08H), human IL17RC-histag protein (11747-H08B), human IL17RD-his tag (10507-H08H). The next day, plates were blocked with 1% BSA in PBS, followed by the addition of hD9042. The binding specificity of hD9042 was measured as the absorbance at 450 nm using anti-human IgG F(ab′)2 peroxidase antibody (Jackson ImmunoResearch Inc).

Test [5] deals with T4, human IL17RC-histag protein (human, UniProt Q8NAC3-2 21-467, limits assumed).
T4 construct: Bought
T4 sequence (looked up): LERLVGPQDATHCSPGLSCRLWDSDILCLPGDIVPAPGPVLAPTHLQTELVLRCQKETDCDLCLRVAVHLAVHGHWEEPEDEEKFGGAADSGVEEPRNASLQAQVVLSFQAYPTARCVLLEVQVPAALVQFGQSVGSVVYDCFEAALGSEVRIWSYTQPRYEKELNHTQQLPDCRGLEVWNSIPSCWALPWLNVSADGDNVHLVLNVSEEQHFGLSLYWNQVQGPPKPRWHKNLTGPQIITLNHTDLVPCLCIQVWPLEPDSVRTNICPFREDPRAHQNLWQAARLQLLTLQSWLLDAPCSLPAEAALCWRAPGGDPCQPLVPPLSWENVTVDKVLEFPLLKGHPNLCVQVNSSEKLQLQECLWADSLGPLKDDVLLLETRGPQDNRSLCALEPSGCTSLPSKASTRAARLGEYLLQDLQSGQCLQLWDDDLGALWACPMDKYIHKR
In words: ELISA, plate coated with 2 ug/ml human IL17RC-histag protein, absorbance 450 nm. On the procedure: as §1

The target in test [6] is T5, human IL17RA-Fc fusion protein (human, UniProt Q96F46 33-320).
T5 construct: Bought; not shown: Fc part of the bought fusion, not described
T5 sequence (looked up): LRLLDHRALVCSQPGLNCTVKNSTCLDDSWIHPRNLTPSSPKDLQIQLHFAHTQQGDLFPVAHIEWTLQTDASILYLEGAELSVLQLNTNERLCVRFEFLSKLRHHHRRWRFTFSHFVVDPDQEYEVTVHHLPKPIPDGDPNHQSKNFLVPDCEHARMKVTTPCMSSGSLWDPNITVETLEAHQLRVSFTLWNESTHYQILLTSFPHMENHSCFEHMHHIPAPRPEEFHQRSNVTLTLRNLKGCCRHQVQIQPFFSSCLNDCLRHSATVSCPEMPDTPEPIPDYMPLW
In words: ELISA, plate coated with 2 ug/ml human IL17RA-Fc fusion protein, absorbance 450 nm. On the procedure:
as §1

Test [7] has as its target T1, recombinant Human IL-17BR-His …. Nature of the test: ELISA, plate coated with 2 ug/ml human IL17BR-his tag protein, detection with anti-human IgG F(ab')2 peroxidase antibody. On the procedure: as §1

Numbering of substitutions follows the chain as printed.

Sequence of Cynomolgus monkey IL-17BR-monoFc (A0A2K5TUK1 entry or part of it): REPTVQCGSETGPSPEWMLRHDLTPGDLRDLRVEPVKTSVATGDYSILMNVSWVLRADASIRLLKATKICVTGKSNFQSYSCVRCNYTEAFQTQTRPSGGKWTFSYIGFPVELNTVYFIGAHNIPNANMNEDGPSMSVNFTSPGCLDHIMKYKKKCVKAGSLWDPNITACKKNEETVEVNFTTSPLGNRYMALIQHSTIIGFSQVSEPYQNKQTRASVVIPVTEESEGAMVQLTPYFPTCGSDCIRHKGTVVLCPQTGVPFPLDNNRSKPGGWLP

B1: chimeric antibody cD9001 (antibody, V domains shown)
VH: QVQLQQPGAELVRPGASVKLSCKTSGYTFISYWMNWVKQGPEQGLEWIGRIDPYDSEIQYNQKFKDKAILTVDKSSSAAYMQLISLTSEDSAVYYCARSGGFDWFAYWGQGTLVTVSA
VL: DIQMTQSPASLSVSVGETVTITCRASENINSNLAWYQQKKGKSPQLLVYDVTNLADGVPSRFSGSGSGTQYSLKINSLQSEDFGSYYCQHFWRPPYTFGGGTNLEIK
notes: Mouse D9.2 variable domains on human IgG1/kappa constant regions; also called chimeric D9.2
As to B1, the Kd – broadly, the equilibrium constant for the complex coming apart – in test [1] was 0.017 nM. Also, the koff – broadly, the rate constant with which the complex falls apart – in [1] is 5e-05 s⁻¹. Also, in test [1], the kon (in general, a measure of how fast the partners come together) came to 2.9e+06 M⁻¹ s⁻¹. The EC50 (as a rule, the concentration giving half of the maximal effect) is 0.23 nM in test [2], 0.216 nM with Mouse IL-17BR-(Fc) and 0.291 nM in [3].

B2: humanized antibody hD9040 (antibody, V domains shown)
VH: EVQLVQSGAEVKKPGASVKVSCKTSGYTFISYWMNWVRQAPGQGLEWMGRIDPYDSEIQYNQKFKDRVTLTRDTSISTAYMELSRLRSDDTAVYYCARSGGFDWFAYWGQGTLVTVSS
VL: DIQMTQSPSSLSASVGDRVTITCRASENINSNLAWYQQKPGKAPKLLLYDVTNLADGVPSRFSGSGSGTDYTLTISSLQPEDFATYYCQHFWGPPYTFGGGTKVEIK
notes: Human IgG1/kappa (pHuG1, pHuK vectors)
On to B2, for which, in [1], the Kd came to 0.02 nM, the koff was determined as 6.66e-05 s⁻¹ and the kon is 3.42e+06 M⁻¹ s⁻¹. In test [4], the EC50 amounted to 0.474 nM.

B3: humanized antibody hD9041 (antibody, V domains shown)
VH: B2 VH with N61A, K65Q, D66G
VL: B2 VL
notes: as for B2
Take B3: in test [1], the Kd was 0.011 nM, the koff worked out at 4.44e-05 s⁻¹ and the kon came out at 3.89e+06 M⁻¹ s⁻¹. In addition, in [4], the EC50 is 0.499 nM.

B4: humanized antibody hD9042 (antibody, V domains shown)
VH: B2 VH with E1Q, T24A, L70M
VL: B2 VL
notes: Human IgG1/kappa (pHuG1, pHuK vectors); also called lead candidate
Consider B4, for which, in the test with human IL17RD-his tag, the binding result is recorded as “no binding”. In test [1], the Kd amounted to 0.017 nM, the koff amounted to 8.23e-05 s⁻¹ and the kon turned out to be 4.85e+06 M⁻¹ s⁻¹. In test [5], the binding result is “no binding”. Also, the EC50 in test [4] amounted to 0.414 nM. In addition, the binding result in [6] is “no binding”. Besides, in test [7], the EC50 (read off the curve) (in general, the midpoint of the concentration-response curve) was around 0.3 nM.
